Patent publication US8455448B2, “Myostatin isoform” (Myostin Therapeutics Pty Ltd, priority 2004, dated 2013)

T1: myostatin (Bos taurus, UniProt O18836)
T1 sequence (O18836 267-375): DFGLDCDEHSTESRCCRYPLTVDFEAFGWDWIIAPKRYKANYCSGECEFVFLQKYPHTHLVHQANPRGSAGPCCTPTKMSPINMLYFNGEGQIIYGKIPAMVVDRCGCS


Molecular target: T1, myostatin
Assay: MSV/canonical myostatin competition in C2C12 proliferation assay
Format: cell-based, bovine
Conditions: 1.5 μg/ml Mstn
Description: Competition of roMSV65 with canonical myostatin was carried out with C2C12 murine myoblasts. Myoblasts were seeded in 96-well tissue culture plates (Nunc, Roskilde, Denmark) at a cell density of 1000 cells per well in 200 μl of Dulbecco's modified Eagle's medium (DMEM, Invitrogen, California) supplemented with foetal bovine serum (FBS, 10% v/v, Invitrogen), penicillin (1×10^5 IU/l, Sigma, St Louis, Mo., USA) and streptomycin (100 mg/l, Sigma) buffered with NaHCO3 containing phenol red (7.22 nmol/l) as a pH indicator, and incubated overnight at 37° C. with 5% CO2. The medium was replaced with DMEM 10% FBS test medium containing no added protein, 1.5 or 2.5 μg/ml recombinant myostatin alone and with combination of 1, 2, 4, 10, 20 molar ratio of roMSV65, and the same amounts of roMSV65 without myostatin in a semi-random arrangement of eight replicates (n=8) for each test medium. Plates were incubated at 37° C. with 5% CO2 for 72 hours, and then the medium was removed. […] The plates were gently shaken and the absorbance was measured at 655 nm using a microplate photometer (VersaMax, Molecular Devices, CA).
Competition of roMSV47 with canonical myostatin was carried out with C2C12 murine myoblasts. […] The plates were gently shaken and the absorbance was measured at 655 nm using a microplate photometer (VersaMax, Molecular Devices, CA). […]

Molecule | restoring of myostatin inhibited proliferation (1:10 molar ratio of myostatin to MSV, 69 h, FIG. 11) | overcoming myostatin-induced inhibition of proliferation (48 h, FIG. 9)
roMSV47: 47 amino acid C-terminal mature ovine MSV fragment (SEQ ID NO: 50), recombinant from E. coli (IIFLEVYIQFCSILGEAVFKRQSKSIHFCQNFKIIACLCNTAAFRMK; Ovis aries) | ineffective at restoring proliferation | 
roMSV65: 65 amino acid C-terminal peptide of ovine MSV (SEQ ID NO: 49) expressed as recombinant protein in E. coli (protein, Ovis aries) VHFYTPPYGQWIFHKERKIIFLEVYIQFCSILGEAVFKRQSKSIHFCQNFKIIACLCNTAAFRMK |  | overcame myostatin-induced inhibition of proliferation
